Experiments:
[1] = target: T1, recombinant human CD3 (rhCD3εδ) (human, UniProt P07766 23-126; P04234 22-105); test: sandwich ELISA: rhCD3εδ coated on plate, detection with peroxidase-conjugated protein L
T1 chain: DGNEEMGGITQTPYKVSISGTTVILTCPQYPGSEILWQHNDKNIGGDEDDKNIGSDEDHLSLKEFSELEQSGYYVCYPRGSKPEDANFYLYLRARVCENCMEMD

[2] = target: T2, recombinant human HER2 (human, UniProt P04626 23-652); test: sandwich ELISA: antigen coated on plate, detection with biotin-conjugated protein L
T2 construct: Coated on the ELISA plate; also called HER2 antigen
Procedure: (§1) The binding specificity of an anti-EpCAM×anti-CD3 ProTIA (e.g. AC1476) was evaluated in conjunction with the control ProTIA compositions anti-CEA×anti-CD3 ProTIA (e.g. AC1432) and anti-HER2×anti-CD3 ProTIA (e.g. AC1408), in a target antigen/biotin-conjugated protein-L sandwich ELISA. Both the anti-CEA×anti-CD3 ProTIA (AC1432) and the anti-HER2×anti-CD3 ProTIA (AC1408) bear the same anti-CD3 scFv component as the anti-EpCAM×anti-CD3 ProTIA (AC1476) albeit with different targeting component. In the ELISA binding assay, recombinant human EpCAM (rhEpCAM) (R&D Systems cat #960-EP-50), recombinant human CEA (Abcam cat #ab742) and recombinant human HER2 (AcroBiosystems cat #HE2-H525) were coated on a 96-well, flat-bottomed plate at a concentration of 0.1 microg/100 microL. After overnight incubation at 4° C., the assay plate was washed and blocked with 3% bovine serum albumin (BSA) for 1 h at room temperature. The plate was washed again followed by the introduction of a dose range (0.0007 to 0.5 nM, achieved with a 1:3 fold serial dilution scheme from a starting concentration of 0.5 nM) of protease-treated anti-EpCAM×anti-CD3 ProTIA (e.g. AC1476) to EpCAM-coated wells, CEA-coated wells and HER2-coated wells. […] After desired color intensity was reached, 0.2 N sulfuric acid was added to stop the reaction and absorbance (OD) was measured at 450 nm using a spectrophotometer. […]

[3] = target: T3, recombinant human CEA (human, UniProt P06731 35-685, limits assumed); test: as above
T3 construct: Coated on the ELISA plate; also called CEA antigen
T3 sequence (looked up): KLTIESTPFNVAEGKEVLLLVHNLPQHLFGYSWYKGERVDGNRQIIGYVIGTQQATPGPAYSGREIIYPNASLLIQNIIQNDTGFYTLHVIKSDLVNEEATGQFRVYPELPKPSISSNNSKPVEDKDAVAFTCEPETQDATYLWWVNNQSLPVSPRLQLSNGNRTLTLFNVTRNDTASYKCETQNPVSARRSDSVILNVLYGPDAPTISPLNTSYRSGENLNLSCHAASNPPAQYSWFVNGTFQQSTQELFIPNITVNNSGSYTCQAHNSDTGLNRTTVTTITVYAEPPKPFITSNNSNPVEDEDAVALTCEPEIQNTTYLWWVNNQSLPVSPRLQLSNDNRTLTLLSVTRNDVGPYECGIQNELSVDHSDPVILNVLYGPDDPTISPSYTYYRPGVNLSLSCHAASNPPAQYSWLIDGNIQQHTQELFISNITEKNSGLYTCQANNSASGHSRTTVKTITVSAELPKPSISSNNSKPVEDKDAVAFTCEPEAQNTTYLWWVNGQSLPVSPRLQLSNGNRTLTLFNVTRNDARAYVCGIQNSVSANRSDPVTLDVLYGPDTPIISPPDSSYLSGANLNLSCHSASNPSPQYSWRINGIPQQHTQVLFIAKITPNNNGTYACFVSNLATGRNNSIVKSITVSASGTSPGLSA
Procedure: as §1

[4] = target: T4, recombinant human EpCAM (rhEpCAM) (human, UniProt P16422 24-265); test: sandwich ELISA: rhEpCAM coated on plate, detection with peroxidase-conjugated protein L
T4 construct: Bought recombinant protein coated on the ELISA plate
T4 sequence (looked up): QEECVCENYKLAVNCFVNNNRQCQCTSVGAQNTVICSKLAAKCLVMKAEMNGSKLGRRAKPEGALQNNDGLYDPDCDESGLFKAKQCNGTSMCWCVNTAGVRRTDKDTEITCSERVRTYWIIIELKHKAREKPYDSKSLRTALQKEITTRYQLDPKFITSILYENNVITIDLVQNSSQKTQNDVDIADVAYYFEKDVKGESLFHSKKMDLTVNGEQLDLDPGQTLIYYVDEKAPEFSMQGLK
Procedure: The binding capability of anti-EpCAM×anti-CD3 ProTIA composition was verified with an EpCAM/peroxidase-conjugated protein-L sandwich ELISA. In the ELISA binding assay, recombinant human EpCAM (rhEpCAM) (Sino BiologicalR&D Systems cat #10694-H08H960-EP-50) was coated on a 96-well, flat-bottomed plate at a concentration of 0.1 microg/100 microL. After overnight incubation at 4° C., the assay plate was washed and blocked with 3% bovine serum albumin (BSA) for 1 h at room temperature. The plate was washed again followed by the introduction of a dose range of non-cleavable anti-EpCAM×anti-CD3 ProTIA (i.e., a ProTIA without the release segment cleavage sequence and AC1484, a ProTIA chimeric polypeptide assembly composition) and protease-treated and protease-untreated anti-EpCAM×anti-CD3 ProTIA (e.g. AC1476). The dose range utilized for non-cleavable and protease-treated and untreated ProTIA was 0.0006 to 5 nM, achieved with a 1:6 fold serial dilution scheme from a starting concentration of 5 nM. The plate was allowed to incubate with shaking for 1 h at room temperature to allow the non-cleavable, protease-cleaved and uncleaved ProTIA to bind to the rhEpCAM coated on the plate. Unbound components were removed with a wash step and a peroxidase-conjugated protein L (PierceThermoFisher Scientific cat #32420) was added. After an appropriate incubation period that allowed protein-L to bind to the kappa light of the scFvs, any unbound reagent was removed by a wash step followed by the addition of tetramethylbenzidine (TMB) substrate to each well. TMB is a chromogenic substrate of peroxidase. After desired color intensity was reached, 0.2 N sulfuric acid was added to stop the reaction and absorbance (OD) was measured at 450 nm using a spectrophotometer. The intensity of the color is proportional to the concentration of non-cleavable, protease-treated and untreated anti-EpCAM×anti-CD3 ProTIA captured by the rhEpCAM/protein-L sandwich ELISA. The intensity of the color produced (measured OD) was plotted against protein concentration; and the concentration of non-cleavable, protease-cleaved and uncleaved anti-EpCAM×anti-CD3 ProTIA that gave half-maximal response (EC₅₀) was derived with a 4-parameter logistic regression equation using GraphPad prism software.

[5] = target: T4, recombinant human EpCAM (rhEpCAM); test: sandwich ELISA: rhEpCAM coated on plate, detection with biotin-conjugated protein L
Procedure: as §1

[6] = target: T5, human EpCAM on EpCAM positive human carcinoma cells (SW480, SK-OV-3) (human, UniProt P16422 24-314); test: cell-based or functional assay
T5 sequence (looked up): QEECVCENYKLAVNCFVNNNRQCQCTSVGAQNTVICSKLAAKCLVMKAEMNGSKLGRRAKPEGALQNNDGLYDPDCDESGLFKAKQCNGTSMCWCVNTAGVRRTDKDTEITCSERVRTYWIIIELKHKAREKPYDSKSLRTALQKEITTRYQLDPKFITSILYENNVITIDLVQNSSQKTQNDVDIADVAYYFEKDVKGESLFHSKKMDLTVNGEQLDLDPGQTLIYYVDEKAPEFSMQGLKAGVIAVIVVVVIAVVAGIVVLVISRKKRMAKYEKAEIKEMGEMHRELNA

[7] = target: human CD3 on purified human CD3 positive T cells (human, UniProt P07766 23-207); test: cell-based or functional assay

EC50 [1]: 0.31 nM
EC50 [4]: 0.12 nM
EC50 [5]: 0.11 nM
B1: Protease-treated (MMP-9 cleaved) AC1476 anti-EpCAM×anti-CD3 ProTIA, released aEpCAM-aCD3 first portion (bispecific antibody)
chain: DIQMTQSPSSLSASVGDRVTITCRSTKSLLHSNGITYLYWYQQKPGKAPKLLIYQMSNLASGVPSRFSSSGSGTDFTLTISSLQPEDFATYYCAQNLEIPRTFGQGTKVEIKGATPPETGAETESPGETTGGSAESEPPGEGQVQLVQSGPGLVQPGGSVRISCAASGYTFTNYGMNWVKQAPGKGLEWMGWINTYTGESTYADSFKGRFTFSLDTSASAAYLQINSLRAEDTAVYYCARFAIKGDYWGQGTLLTVSSGGGGSDIQMTQSPSSLSASVGDRVTITCRASQDIRNYLNWYQQKPGKAPKLLIYYTSRLESGVPSRFSGSGSGTDYTLTISSLQPEDFATYYCQQGNTLPWTFGQGTKVEIKGATPPETGAETESPGETTGGSAESEPPGEGEVQLVESGGGLVQPGGSLRLSCAASGYSFTGYTMNWVRQAPGKGLEWVALINPYKGVSTYNQKFKDRFTISVDKSKNTAYLQMNSLRAEDTAVYYCARSGYYGDSDWYFDVWGQGTLVTVSSGTAEAASASGLSGRSDNHSPLG
notes: ESI-MS found 58,071 Da against a theoretical 58,067 Da; also called ProTIA-A; protease-treated anti-EpCAM×anti-CD3 ProTIA
binding result [2]: no binding (tested: 0.0007 to 0.5 nM (dose range tested))
binding result [3]: no binding (tested: 0.0007 to 0.5 nM (dose range tested))
EC50, LDH release cytotoxicity, PBMC:SK-OV-3 5:1 [6]: 0.003 nM
EC50, LDH release cytotoxicity, purified human CD3 positive T cells:OVCAR-3 5:1 [7]: 0.0003 nM
EC50, LDH release cytotoxicity, purified human CD3 positive T cells:SK-OV-3 5:1 [7]: 0.0024 nM

— US20240018260A1 (AMUNIX PHARMACEUTICALS, published 2024)
